Measurements as given in PMC4264199, “Peptide Array on Cellulose Support—A Screening Tool to Identify Peptides with Dipeptidyl-Peptidase IV Inhibitory Activity within the Sequence of α-Lactalbumin” (International Journal of Molecular Sciences, 2014).
Ends that are not written are not given here.

Molecular target: T1, dipeptidyl-peptidase IV (DPP-IV) (Homo sapiens, UniProt P27487)
T1 construct: purchased Creative BioMart (Shirley, NY, USA); host or cells: HEK293 human cells
Assay: DPP-IV inhibition assay on SPOT-synthesized peptides (cleaved from cellulose membrane)
Type: biochemical
Settings: peptides cleaved from cellulose membrane, concentration not known (semi-quantitative); averages of four determinations from two experiments
Excerpt: Recombinant human dipeptidyl-peptidase IV (DPP-IV, EC 3.4.14.5, expressed in HEK293 human cells, >95% purity, activity >5500 pmoles Gly–Pro–7-amido-4-methylcoumarin/min/µg) was purchased from Creative BioMart (Shirley, NY, USA) while polyclonal goat DPP-IV antibody and polyclonal donkey anti-goat secondary antibody conjugated to horseradish peroxidase were obtained from R&D Systems (Minneapolis, MN, USA). Pierce™ ECL western blotting substrate and protein-free (TBS) blocking buffer were from Thermo Scientific (Rockford, IL, USA). Gly–Pro–p-nitroanilide (H-Gly–Pro–p-NA∙HCl) was purchased from Bachem Americas (Torrance, CA, USA). Synthesized peptides (≥95% purity) were prepared and purified by GL Biochem (Shanghai) Ltd. (Shanghai, China).
Peptide arrays of deca-peptides spanning the entire α-lactalbumin sequence with a frame shift of one amino acid between successive sequences were prepared by Kinexus Bioinformatics Corporation (Vancouver, BC, Canada). The peptides were synthesized from the C-terminal amino acid using the SPOT technology consisting of the stepwise coupling of the Fmoc-protected amino acids and cleavage of the side chain protection groups. The α-lactalbumin-derived peptides were synthesized on trioxatridecanediamine (TOTD) and β-alanine-modified Whatman 540 cellulose membranes for the binding and inhibition assays, respectively. For the inhibition assay, the peptides were synthesized in large dots (5–7 mm in diameter) and the quality of the synthesis was verified by HPLC analysis of quality controls spots included on the membranes.
In order to determine the effect of the SPOT-synthesized peptides on the activity of the DPP-IV enzyme, the peptides were first cleaved from the cellulose support by incubating the membranes with gaseous ammonia overnight. Peptide spots (5 mm in diameter) were then punched out using a single-hole punch and transferred into microcentrifuge tubes containing 150 µL of acetonitrile (50% in 100 mM Tris–HCl buffer pH 8.0). The peptide solution (50 µL) was pipetted into a 96-well microplate with 35 µL of the chromogenic substrate Gly–Pro–p-NA (0.29 mM in 100 mM Tris–HCl buffer pH 8.0). The mixture was pre-incubated for 10 min at 37 °C, whereupon 15 µL of DPP-IV (25 mU/mL) was added and the enzymatic reaction was carried out for 30 min at 37 °C. The reaction was then terminated by addition of 100 µL of 1 M sodium acetate buffer pH 4.0 and the absorbance of the released p-nitroaniline was measured at 405 nm using a Tecan Infinite® 200 Pro microplate reader (ESBE Scientific, Markham, ON, Canada). Positive and negative controls (DPP-IV activity with no inhibitor and no DPP-IV activity, respectively) were prepared using punched peptide-free cellulose spots from the same membrane used for peptide synthesis, and adding Tris-HCl buffer in place of the sample and in place of the sample and enzyme solution, respectively.
One unit of DPP-IV was defined as the concentration of enzyme that releases 1 µmol per min of p-nitroaniline from Gly–Pro–p-NA (100 µM) at 37 °C and pH 8.0.

T1 sequence (P27487 whole entry): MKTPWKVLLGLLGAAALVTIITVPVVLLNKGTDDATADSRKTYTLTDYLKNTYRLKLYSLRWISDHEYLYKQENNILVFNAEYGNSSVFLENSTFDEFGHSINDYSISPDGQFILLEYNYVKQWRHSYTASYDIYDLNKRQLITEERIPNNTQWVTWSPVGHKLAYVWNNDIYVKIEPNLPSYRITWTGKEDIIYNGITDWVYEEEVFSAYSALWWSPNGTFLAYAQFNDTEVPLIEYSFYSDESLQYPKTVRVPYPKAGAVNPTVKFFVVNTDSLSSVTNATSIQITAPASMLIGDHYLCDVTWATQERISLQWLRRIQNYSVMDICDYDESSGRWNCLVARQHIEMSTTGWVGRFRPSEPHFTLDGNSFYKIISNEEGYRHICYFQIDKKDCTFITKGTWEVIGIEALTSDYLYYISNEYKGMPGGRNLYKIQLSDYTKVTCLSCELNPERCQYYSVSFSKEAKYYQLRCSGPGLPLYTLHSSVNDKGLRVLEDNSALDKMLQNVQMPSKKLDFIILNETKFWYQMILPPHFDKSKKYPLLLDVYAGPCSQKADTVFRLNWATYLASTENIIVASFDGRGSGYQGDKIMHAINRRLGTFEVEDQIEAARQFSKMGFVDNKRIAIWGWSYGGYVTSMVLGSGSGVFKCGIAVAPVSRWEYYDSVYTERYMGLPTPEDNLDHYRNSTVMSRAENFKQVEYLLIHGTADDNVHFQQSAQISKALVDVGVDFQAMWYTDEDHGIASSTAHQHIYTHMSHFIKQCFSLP

First: D6: α-lactalbumin-derived deca-peptide, residues 39–48 (Table S1) (QAIVQNNDST; UniProt P00711 58-67, looked up, fragment)
Second: H9: α-lactalbumin-derived deca-peptide, residues 86–95 (Table S1) (TDDIMCAKKI; UniProt P00709 105-114, looked up, fragment)
The “Percent inhibition of DPP-IV activity, SPOT-synthesized deca-peptides” value (from here on “Percent inhibition of DPP-IV activity”) of the first is lower: 14% for the first, 20% for the second.

Going from DQNPHSSNIC [F9] to CSEKLDQWLC [K1], the “Percent inhibition of DPP-IV activity” value rises from 15% to 22%.

Going from “HAEGTFTSDY [K10, HAEGTFTSDY, reference compound]” to “I1: α-lactalbumin-derived deca-peptide, residues 89–98 (Table S1) (IMCVKKILDK; UniProt P00711 108-117, looked up, fragment)”, the “Percent inhibition of DPP-IV activity” value falls from 19% to 17%.

First: A3: α-lactalbumin-derived deca-peptide, residues 3–12 (Table S1) (FTKCELSQLL; UniProt P00709 22-31, looked up, fragment)
Second: KALCSEKLDQ [J9]
The “Percent inhibition of DPP-IV activity” value of the first is lower: 20% for the first, 24% for the second.

First: B2: α-lactalbumin-derived deca-peptide, residues 13–22 (Table S1) (KDLKGYGGVS; UniProt P00711 32-41, looked up, fragment)
Second: B4: α-lactalbumin-derived deca-peptide, residues 15–24 (Table S1) (LKGYGGVSLP; UniProt P00711 34-43, looked up, fragment)
The “Percent inhibition of DPP-IV activity” value of the first is lower: 11% for the first, 13% for the second.

Going from “B7: α-lactalbumin-derived deca-peptide, residues 18–27 (Table S1) (YGGVSLPEWV; UniProt P00711 37-46, looked up, fragment)” to “A5: α-lactalbumin-derived deca-peptide, residues 5–14 (Table S1) (KCEVFRELKD; UniProt P00711 24-33, looked up, fragment)”, the “Percent inhibition of DPP-IV activity” value rises from 15% to 17%.

KIWCKDDQNP [F3] and KLDQWLCEKL [K4] are the same in “Percent inhibition of DPP-IV activity” value: 19% for the first, 19% for the second.

Going from YGLFQINNKI [E6] to TEYGLFQINN [E4], the “Percent inhibition of DPP-IV activity” value falls from 11% to 9%.

First: NPHSSNICNI [F11, NPHSSNICNI]
Second: SLPEWVCTTF [B11]
The “Percent inhibition of DPP-IV activity” value of the first is higher: 15% for the first, 9% for the second.

First: G2: α-lactalbumin-derived deca-peptide, residues 68–77 (Table S1) (HSSNICNISC; UniProt P00711 87-96, looked up, fragment)
Second: G3: α-lactalbumin-derived deca-peptide, residues 69–78 (Table S1) (SSNICNISCD; UniProt P00711 88-97, looked up, fragment)
The “Percent inhibition of DPP-IV activity” value of the first is lower: 9% for the first, 16% for the second.

Compared with “A2: α-lactalbumin-derived deca-peptide, residues 2–11 (Table S1) (QFTKCELSQL; UniProt P00709 21-30, looked up, fragment)”, NKIWCKDDQN [F2] is higher in “Percent inhibition of DPP-IV activity” value: 16% for the first, 17% for the second.

Going from HKALCSEKLD [J8] to “A6: α-lactalbumin-derived deca-peptide, residues 6–15 (Table S1) (CEVFRELKDL; UniProt P00711 25-34, looked up, fragment)”, the “Percent inhibition of DPP-IV activity” value falls from 20% to 16%.

Going from CDKFLDDDLT [G11] to “G1: α-lactalbumin-derived deca-peptide, residues 67–76 (Table S1) (PHSSNICNIS; UniProt P00711 86-95, looked up, fragment)”, the “Percent inhibition of DPP-IV activity” value falls from 22% to 11%.

Compared with “I9: α-lactalbumin-derived deca-peptide, residues 97–106 (Table S1) (DKVGINYWLA; UniProt P00711 116-125, looked up, fragment)”, LFQINNKIWC [E8] is lower in “Percent inhibition of DPP-IV activity” value: 22% for the first, 13% for the second.

First: J3: α-lactalbumin-derived deca-peptide, residues 102–111 (Table S1) (DYWLAHKALC; UniProt P00709 121-130, looked up, fragment)
Second: C2: α-lactalbumin-derived deca-peptide, residues 24–33 (Table S1) (PEWVCTTFHT; UniProt P00711 43-52, looked up, fragment)
The “Percent inhibition of DPP-IV activity” value of the first is higher: 15% for the first, 14% for the second.

Compared with “B1: α-lactalbumin-derived deca-peptide, residues 12–21 (Table S1) (LKDLKGYGGV; UniProt P00711 31-40, looked up, fragment)”, “I11: α-lactalbumin-derived deca-peptide, residues 99–108 (Table S1) (VGINYWLAHK; UniProt P00711 118-127, looked up, fragment)” is higher in “Percent inhibition of DPP-IV activity” value: 11% for the first, 20% for the second.

Going from IVQNNDSTEY [D8] to “A4: α-lactalbumin-derived deca-peptide, residues 4–13 (Table S1) (TKCELSQLLK; UniProt P00709 23-32, looked up, fragment)”, the “Percent inhibition of DPP-IV activity” value rises from 15% to 20%.

First: RELKDLKGYG [A10]
Second: EKLDQWLCEK [K3]
The “Percent inhibition of DPP-IV activity” value of the first is lower: 14% for the first, 24% for the second.

Compared with AIVQNNDSTE [D7], FQINNKIWCK [E9] is higher in “Percent inhibition of DPP-IV activity” value: 11% for the first, 20% for the second.

Going from “I3: α-lactalbumin-derived deca-peptide, residues 91–100 (Table S1) (CVKKILDKVG; UniProt P00711 110-119, looked up, fragment)” to “D5: α-lactalbumin-derived deca-peptide, residues 38–47 (Table S1) (TQAIVQNNDS; UniProt P00711 57-66, looked up, fragment)”, the “Percent inhibition of DPP-IV activity” value falls from 26% to 14%.

First: A9: α-lactalbumin-derived deca-peptide, residues 9–18 (Table S1) (FRELKDLKGY; UniProt P00711 28-37, looked up, fragment)
Second: D2: α-lactalbumin-derived deca-peptide, residues 35–44 (Table S1) (GYDTQAIVQN; UniProt P00711 54-63, looked up, fragment)
The “Percent inhibition of DPP-IV activity” value of the first is higher: 17% for the first, 9% for the second.

First: NDSTEYGLFQ [E1]
Second: H4: α-lactalbumin-derived deca-peptide, residues 81–90 (Table S1) (LDDDLTDDIM; UniProt P00711 100-109, looked up, fragment)
The “Percent inhibition of DPP-IV activity” value of the first is lower: 14% for the first, 21% for the second.

First: KDDQNPHSSN [F7]
Second: B3: α-lactalbumin-derived deca-peptide, residues 14–23 (Table S1) (DIDGYGGIAL; UniProt P00709 33-42, looked up, fragment)
The “Percent inhibition of DPP-IV activity” value of the first is higher: 16% for the first, 13% for the second.

Compared with SCDKFLDDDL [G10], “G7: α-lactalbumin-derived deca-peptide, residues 73–82 (Table S1) (CNISCDKFLD; UniProt P00711 92-101, looked up, fragment)” is lower in “Percent inhibition of DPP-IV activity” value: 21% for the first, 17% for the second.

With VQNNDSTEYG [D9] the “Percent inhibition of DPP-IV activity” value was 13%.
